Data: the supplement of paper PMC7877785
± gives the uncertainty stated by the source.

Experiment: self-splicing fitness, log relative to wild type (ln ratio); higher = more splicing; Tetrahymena group I intron in knt gene, E. coli kanamycin selection, DiMSum; sequences stand for … in CUCUCU…GGAGGGAAAAGUUAUCAGGCAUGCACCUGGUAGCUAGUCUUUAAACCAAUAGAUUGCAUCGGUUUAAAAGGCAAGACCGUCAAAUUGCGGGAAAGGGGUCAACAGCCGUUCAGUACCAAGUCUCAGGGGAAACUUUGAGAUGGCCUUGCAAAGGGUAUGGUAAUAAGCUGACGGACAUGGUCCUAACCACGCAGCCAAGUCCUAAGUCAACAGAUCUUCUGUUGAUAUGGAUGCAGUUCACAGACUAAAUGUCGGUCGGGGAAGAUGUAUUCUUCUCAUAAGAUAUAGUCGGACCUCUCCUUAAUGGGAGCUAGCGGAUGAAGUGAUGCAACACUGGAGCCGCUGGGAACUAAUUUGUAUGCGAAAGUAUAUUGAUUAGUUUUGGAGUACUCGUGGUCG
Outline: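 Fitness was computed with DiMSum as the error-weighted combination of replicate fold changes, kanamycin versus none, each normalised to wild type. The library randomised all eight intron nucleotides of the P1ex region, with the intron placed in the knt kanamycin-resistance gene on pET-22b(+) in E. coli BL21(DE3). Six replicate transformations were grown overnight at 37°C or 30°C on LB agar with or without 25 μg/mL kanamycin, plus 100 μg/mL carbenicillin, 50 μM IPTG and 0.2% rhamnose. Pooled colonies were amplicon-sequenced on an Illumina HiSeq 2500.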

Sequence | self-splicing fitness (ln) (30 °C) | self-splicing fitness (ln) (37 °C)
GGAAAGCAAUAUUACGGAUA | -2.59 ± 0.21 | -1.55 ± 0.19
GGAAAGCAAUAUUACGGAUG | -2.54 ± 0.17 | -2.18 ± 0.21
GGAAAGCAAUAUUACGGCAG | -1.79 ± 0.21 | -3.11 ± 0.43
GGAAAGCAAUAUUACGGCGA | -0.475 ± 0.1 | -0.211 ± 0.089
GGAAAGCAAUAUUACGUAAA | -1.94 ± 0.1 | -0.563 ± 0.11
GGAAAGCAAUAUUACGUAAC | -1.42 ± 0.12 | -1.42 ± 0.16
GGAAAGCAAUAUUACGUACC | -2.13 ± 0.46 | -2.35 ± 0.49
GGAAAGCAAUAUUACGUCGG | -3.51 ± 0.36 | 
GGAAAGCAAUAUUACGUGUU | -2.76 ± 0.11 | -1.66 ± 0.12
GGAAAGCAAUAUUACGUUGC | -4.27 ± 0.35 | -2.2 ± 0.26
GGAAAGCAAUAUUACGUUGG | -3.55 ± 0.2 | -2.83 ± 0.34
GGACAGCAAUAUUACGAACA | -0.522 ± 0.18 | -0.703 ± 0.18
GGACAGCAAUAUUACGAACG | -0.686 ± 0.08 | -0.333 ± 0.1
GGACAGCAAUAUUACGAAGA | -2.27 ± 0.22 | -0.517 ± 0.19
GGACAGCAAUAUUACGAGCU | -1.01 ± 0.18 | 0.191 ± 0.19
GGACAGCAAUAUUACGAGGA | -2.32 ± 0.2 | -1.85 ± 0.16
GGACAGCAAUAUUACGAUAG | -3.66 ± 0.25 | -2.13 ± 0.23
GGACAGCAAUAUUACGCAAA | -1.19 ± 0.13 | -0.67 ± 0.12
GGACAGCAAUAUUACGCAGA | -0.851 ± 0.16 | -0.643 ± 0.15
GGACAGCAAUAUUACGCGAG | -1.24 ± 0.058 | -0.0238 ± 0.063
GGACAGCAAUAUUACGCGGC | -3.12 ± 0.22 | -2.76 ± 0.34
GGACAGCAAUAUUACGCGGG | -2.52 ± 0.1 | -0.903 ± 0.091
GGACAGCAAUAUUACGCGUA | -0.744 ± 0.065 | -0.68 ± 0.073
GGACAGCAAUAUUACGGCUA | -0.452 ± 0.13 | -0.278 ± 0.12
GGACAGCAAUAUUACGGUAU | -0.41 ± 0.066 | -0.343 ± 0.09
GGACAGCAAUAUUACGUACC | -1.81 ± 0.32 | 
GGACAGCAAUAUUACGUCAG | -0.431 ± 0.068 | -0.434 ± 0.084

Sequence | self-splicing fitness (ln) (30 °C) | self-splicing fitness (ln) (37 °C)
GGACAGCAAUAUUACGUGAU | -0.212 ± 0.061 | -0.0525 ± 0.078
GGACAGCAAUAUUACGUGCU | -0.778 ± 0.11 | -0.685 ± 0.13
GGACAGCAAUAUUACGUUAC | -2.86 ± 0.2 | -2.49 ± 0.26
GGACAGCAAUAUUACGUUCU | -2.91 ± 0.12 | -2.45 ± 0.18
GGACAGCAAUAUUACGUUUU | -1.06 ± 0.061 | -0.21 ± 0.073
GGAGAGCAAUAUUACGAACA |  | -1.93 ± 0.22
GGAGAGCAAUAUUACGAAGA | -3.05 ± 0.44 | -1.59 ± 0.39
GGAGAGCAAUAUUACGAAGC | -3.17 ± 0.37 | 
GGAGAGCAAUAUUACGACAU | -2.642 ± 0.022 | -1.55 ± 0.037
GGAGAGCAAUAUUACGACGA | -2.34 ± 0.21 | -2.08 ± 0.3
GGAGAGCAAUAUUACGACUU | -2.58 ± 0.19 | -0.744 ± 0.16
GGAGAGCAAUAUUACGAUGA | -2.47 ± 0.49 | 
GGAGAGCAAUAUUACGCCAA | -2.04 ± 0.24 | 
GGAGAGCAAUAUUACGCCCU | -2.57 ± 0.42 | 
GGAGAGCAAUAUUACGGCCU | -2.34 ± 0.29 | -1.19 ± 0.43
GGAGAGCAAUAUUACGGCGU | -1.58 ± 0.2 | -1.17 ± 0.26
GGAGAGCAAUAUUACGGCUC | -1.76 ± 0.2 | -2.82 ± 0.34
GGAGAGCAAUAUUACGGGCC | -2.35 ± 0.33 | 
GGAGAGCAAUAUUACGGUAU |  | -2.2 ± 0.34
GGAGAGCAAUAUUACGGUUA | -3.19 ± 0.38 | 
GGAGAGCAAUAUUACGUAGA | -4.01 ± 0.2 | -2.05 ± 0.15
GGAGAGCAAUAUUACGUAUC | -2.61 ± 0.34 | -0.193 ± 0.23
GGAGAGCAAUAUUACGUAUU | -4.02 ± 0.31 | -1.22 ± 0.16
GGAGAGCAAUAUUACGUGUU | -4.51 ± 0.37 | -1.64 ± 0.31
GGAGAGCAAUAUUACGUUCA | -1.39 ± 0.17 | -0.277 ± 0.21
GGAGAGCAAUAUUACGUUGA |  | -1.97 ± 0.42
GGAUAGCAAUAUUACGACGU | -0.152 ± 0.28 | -0.257 ± 0.24

Sequence | self-splicing fitness (ln) (30 °C) | self-splicing fitness (ln) (37 °C)
GGAUAGCAAUAUUACGAGAU | -3.46 ± 0.32 | 0.361 ± 0.15
GGAUAGCAAUAUUACGAGUC | -2.17 ± 0.26 | -1.06 ± 0.22
GGAUAGCAAUAUUACGAUGU | -0.882 ± 0.084 | -0.0369 ± 0.11
GGAUAGCAAUAUUACGCAUC |  | -1.63 ± 0.38
GGAUAGCAAUAUUACGCAUU | -3.51 ± 0.32 | -1.65 ± 0.22
GGAUAGCAAUAUUACGCGGU | -2.47 ± 0.33 | -2.6 ± 0.38
GGAUAGCAAUAUUACGCUUA | -1.88 ± 0.18 | -0.532 ± 0.15
GGAUAGCAAUAUUACGGACG | -0.899 ± 0.13 | -0.693 ± 0.17
GGAUAGCAAUAUUACGGAGG | -3.06 ± 0.2 | -2.77 ± 0.3
GGAUAGCAAUAUUACGGGCC | -2.56 ± 0.35 | -1.65 ± 0.23
GGAUAGCAAUAUUACGGGUG | -2.79 ± 0.33 | -0.239 ± 0.17
GGAUAGCAAUAUUACGGUUG | -3.53 ± 0.26 | -0.953 ± 0.18
GGAUAGCAAUAUUACGUCAG | -2.87 ± 0.12 | -2.12 ± 0.23
GGAUAGCAAUAUUACGUCGG | -2.62 ± 0.23 | -1.86 ± 0.27
GGAUAGCAAUAUUACGUCUU | -0.966 ± 0.096 | 0.126 ± 0.11
GGAUAGCAAUAUUACGUUCG | -1.55 ± 0.12 | -1.64 ± 0.14
GGCAAGCAAUAUUACGAACU | -1.18 ± 0.16 | 0.413 ± 0.14
GGCAAGCAAUAUUACGACGA | -1.37 ± 0.099 | -0.167 ± 0.11
GGCAAGCAAUAUUACGAUAU | -1.29 ± 0.073 | -0.406 ± 0.096
GGCAAGCAAUAUUACGAUUG | -3.03 ± 0.19 | -1.64 ± 0.16
GGCAAGCAAUAUUACGCCAU | -2.4 ± 0.39 | -1.39 ± 0.29
GGCAAGCAAUAUUACGCCCU | -2.53 ± 0.26 | -0.495 ± 0.19
GGCAAGCAAUAUUACGGCCU | -2.74 ± 0.18 | 0.111 ± 0.23
GGCAAGCAAUAUUACGGGCU | -2.53 ± 0.2 | -2.48 ± 0.2
GGCAAGCAAUAUUACGGGGC | -2.62 ± 0.42 | -1.5 ± 0.32
